Measured values reported in patent publication US20120214174.

T1: MUC1-a peptide (AHGVTSAPDTR)
T1 chain: AHGVTSAPDTR

T2: MUC1-b peptide (RPAPGSTAPPA)
T2 chain: RPAPGSTAPPA


Key:
[1] = molecular target: endogenous MUC1 protein (Mucin-1)
[2] = molecular target: T1, MUC1-a peptide (AHGVTSAPDTR)
[3] = molecular target: T2, MUC1-b peptide (RPAPGSTAPPA)

Protein	Western blot of MUC1 in stable HeLa transformants (band shift by O-glycosylation) [1]	in vitro GalNAc-transferase assay (HPLC of DNS-labelled peptide) [2]	in vitro GalNAc-transferase assay (HPLC of DNS-labelled peptide) [3]
HA-tagged wild-type GALNT6 protein stably expressed in HeLa cells (pCAGGS-GALNT6-HA) (protein) MRLLRRRHMPLRLAMVGCAFVLFLFLLHRDVSSREEATEKPWLKSLVSRKDHVLDLMLEAMNNLRDSMPKLQIRAPEAQQTLFSINQSCLPGFYTPAELKPFWERPPQDPNAPGADGKAFQKSKWTPLETQEKEEGYKKHCFNAFASDRISLQRSLGPDTRPPECVDQKFRRCPPLATTSVIIVFHNEAWSTLLRTVYSVLHTTPAILLKEIILVDDASTEEHLKEKLEQYVKQLQVVRVVRQEERKGLITARLLGASVAQAEVLTFLDAHCECFHGWLEPLLARIAEDKTVVVSPDIVTIDLNTFEFAKPVQRGRVHSRGNFDWSLTFGWETLPPHEKQRRKDETYPIKSPTFAGGLFSISKSYFEHIGTYDNQMEIWGGENVEMSFRVWQCGGQLEIIPCSVVGHVFRTKSPHTFPKGTSVIARNQVRLAEVWMDSYKKIFYRRNLQAAKMAQEKSFGDISERLQLREQLHCHNFSWYLHNVYPEMFVPDLTPTFYGAIKNLGTNQCLDVGENNRGGKPLIMYSCHGLGGNQYFEYTTQRDLRHNIAKQLCLHVSKGALGLGSCHFTGKNSQVPKDEEWELAQDQLIRNSGSGTCLTSQDKKPAMAPCNPSDPHQLWLFV	In the cells with WT-GALNT6 (clone no. 101, 110 and 304), the highest molecular weight of MUC1 protein (>250 kDa) was observed	–	–
HA-tagged GALNT6 H271D mutant stably expressed in HeLa cells (pCAGGS-GALNT6 (H271D)-HA) (protein) MRLLRRRHMPLRLAMVGCAFVLFLFLLHRDVSSREEATEKPWLKSLVSRKDHVLDLMLEAMNNLRDSMPKLQIRAPEAQQTLFSINQSCLPGFYTPAELKPFWERPPQDPNAPGADGKAFQKSKWTPLETQEKEEGYKKHCFNAFASDRISLQRSLGPDTRPPECVDQKFRRCPPLATTSVIIVFHNEAWSTLLRTVYSVLHTTPAILLKEIILVDDASTEEHLKEKLEQYVKQLQVVRVVRQEERKGLITARLLGASVAQAEVLTFLDADCECFHGWLEPLLARIAEDKTVVVSPDIVTIDLNTFEFAKPVQRGRVHSRGNFDWSLTFGWETLPPHEKQRRKDETYPIKSPTFAGGLFSISKSYFEHIGTYDNQMEIWGGENVEMSFRVWQCGGQLEIIPCSVVGHVFRTKSPHTFPKGTSVIARNQVRLAEVWMDSYKKIFYRRNLQAAKMAQEKSFGDISERLQLREQLHCHNFSWYLHNVYPEMFVPDLTPTFYGAIKNLGTNQCLDVGENNRGGKPLIMYSCHGLGGNQYFEYTTQRDLRHNIAKQLCLHVSKGALGLGSCHFTGKNSQVPKDEEWELAQDQLIRNSGSGTCLTSQDKKPAMAPCNPSDPHQLWLFV	in those with mock (clone no. 001, 003 and 006) or H271D (clone no. 102, 212 and 114) the shifted band was not observed	–	–
recombinant wild-type GALNT6 protein without a signal peptide (codons 35-622), His-tagged (protein) EEATEKPWLKSLVSRKDHVLDLMLEAMNNLRDSMPKLQIRAPEAQQTLFSINQSCLPGFYTPAELKPFWERPPQDPNAPGADGKAFQKSKWTPLETQEKEEGYKKHCFNAFASDRISLQRSLGPDTRPPECVDQKFRRCPPLATTSVIIVFHNEAWSTLLRTVYSVLHTTPAILLKEIILVDDASTEEHLKEKLEQYVKQLQVVRVVRQEERKGLITARLLGASVAQAEVLTFLDAHCECFHGWLEPLLARIAEDKTVVVSPDIVTIDLNTFEFAKPVQRGRVHSRGNFDWSLTFGWETLPPHEKQRRKDETYPIKSPTFAGGLFSISKSYFEHIGTYDNQMEIWGGENVEMSFRVWQCGGQLEIIPCSVVGHVFRTKSPHTFPKGTSVIARNQVRLAEVWMDSYKKIFYRRNLQAAKMAQEKSFGDISERLQLREQLHCHNFSWYLHNVYPEMFVPDLTPTFYGAIKNLGTNQCLDVGENNRGGKPLIMYSCHGLGGNQYFEYTTQRDLRHNIAKQLCLHVSKGALGLGSCHFTGKNSQVPKDEEWELAQDQLIRNSGSGTCLTSQDKKPAMAPCNPSDPHQLWLFV	–	WT-GALNT6 rapidly O-glycosylated MUC1 peptides in 10-min incubation	WT-GALNT6 rapidly O-glycosylated MUC1 peptides in 10-min incubation
recombinant GALNT6 E382Q mutant protein (protein) EEATEKPWLKSLVSRKDHVLDLMLEAMNNLRDSMPKLQIRAPEAQQTLFSINQSCLPGFYTPAELKPFWERPPQDPNAPGADGKAFQKSKWTPLETQEKEEGYKKHCFNAFASDRISLQRSLGPDTRPPECVDQKFRRCPPLATTSVIIVFHNEAWSTLLRTVYSVLHTTPAILLKEIILVDDASTEEHLKEKLEQYVKQLQVVRVVRQEERKGLITARLLGASVAQAEVLTFLDAHCECFHGWLEPLLARIAEDKTVVVSPDIVTIDLNTFEFAKPVQRGRVHSRGNFDWSLTFGWETLPPHEKQRRKDETYPIKSPTFAGGLFSISKSYFEHIGTYDNQMEIWGGQNVEMSFRVWQCGGQLEIIPCSVVGHVFRTKSPHTFPKGTSVIARNQVRLAEVWMDSYKKIFYRRNLQAAKMAQEKSFGDISERLQLREQLHCHNFSWYLHNVYPEMFVPDLTPTFYGAIKNLGTNQCLDVGENNRGGKPLIMYSCHGLGGNQYFEYTTQRDLRHNIAKQLCLHVSKGALGLGSCHFTGKNSQVPKDEEWELAQDQLIRNSGSGTCLTSQDKKPAMAPCNPSDPHQLWLFV	–	mutant-GALNT6 proteins (H271D and E382Q) could not transfer GalNAc to MUC1 peptides even by 16 hours incubation	mutant-GALNT6 proteins (H271D and E382Q) could not transfer GalNAc to MUC1 peptides even by 16 hours incubation
recombinant GALNT6 H271D mutant protein (protein) EEATEKPWLKSLVSRKDHVLDLMLEAMNNLRDSMPKLQIRAPEAQQTLFSINQSCLPGFYTPAELKPFWERPPQDPNAPGADGKAFQKSKWTPLETQEKEEGYKKHCFNAFASDRISLQRSLGPDTRPPECVDQKFRRCPPLATTSVIIVFHNEAWSTLLRTVYSVLHTTPAILLKEIILVDDASTEEHLKEKLEQYVKQLQVVRVVRQEERKGLITARLLGASVAQAEVLTFLDADCECFHGWLEPLLARIAEDKTVVVSPDIVTIDLNTFEFAKPVQRGRVHSRGNFDWSLTFGWETLPPHEKQRRKDETYPIKSPTFAGGLFSISKSYFEHIGTYDNQMEIWGGENVEMSFRVWQCGGQLEIIPCSVVGHVFRTKSPHTFPKGTSVIARNQVRLAEVWMDSYKKIFYRRNLQAAKMAQEKSFGDISERLQLREQLHCHNFSWYLHNVYPEMFVPDLTPTFYGAIKNLGTNQCLDVGENNRGGKPLIMYSCHGLGGNQYFEYTTQRDLRHNIAKQLCLHVSKGALGLGSCHFTGKNSQVPKDEEWELAQDQLIRNSGSGTCLTSQDKKPAMAPCNPSDPHQLWLFV	–	mutant-GALNT6 proteins (H271D and E382Q) could not transfer GalNAc to MUC1 peptides even by 16 hours incubation	mutant-GALNT6 proteins (H271D and E382Q) could not transfer GalNAc to MUC1 peptides even by 16 hours incubation
